Results taken from doi:10.1101/2022.02.09.479832v2 (biorxiv, 2022).
Read-outs that look alike come from different tables or passages of the source. Each block holds one molecule with its values, some of them ahead of it.

Columns and labels:
PmIleRS1 [1] = target: T1, PmIleRS1 (Priestia megaterium, UniProt A0A0B6A6A8); test: biochemical; details: read-out: koff
T1 sequence (A0A0B6A6A8 1-921): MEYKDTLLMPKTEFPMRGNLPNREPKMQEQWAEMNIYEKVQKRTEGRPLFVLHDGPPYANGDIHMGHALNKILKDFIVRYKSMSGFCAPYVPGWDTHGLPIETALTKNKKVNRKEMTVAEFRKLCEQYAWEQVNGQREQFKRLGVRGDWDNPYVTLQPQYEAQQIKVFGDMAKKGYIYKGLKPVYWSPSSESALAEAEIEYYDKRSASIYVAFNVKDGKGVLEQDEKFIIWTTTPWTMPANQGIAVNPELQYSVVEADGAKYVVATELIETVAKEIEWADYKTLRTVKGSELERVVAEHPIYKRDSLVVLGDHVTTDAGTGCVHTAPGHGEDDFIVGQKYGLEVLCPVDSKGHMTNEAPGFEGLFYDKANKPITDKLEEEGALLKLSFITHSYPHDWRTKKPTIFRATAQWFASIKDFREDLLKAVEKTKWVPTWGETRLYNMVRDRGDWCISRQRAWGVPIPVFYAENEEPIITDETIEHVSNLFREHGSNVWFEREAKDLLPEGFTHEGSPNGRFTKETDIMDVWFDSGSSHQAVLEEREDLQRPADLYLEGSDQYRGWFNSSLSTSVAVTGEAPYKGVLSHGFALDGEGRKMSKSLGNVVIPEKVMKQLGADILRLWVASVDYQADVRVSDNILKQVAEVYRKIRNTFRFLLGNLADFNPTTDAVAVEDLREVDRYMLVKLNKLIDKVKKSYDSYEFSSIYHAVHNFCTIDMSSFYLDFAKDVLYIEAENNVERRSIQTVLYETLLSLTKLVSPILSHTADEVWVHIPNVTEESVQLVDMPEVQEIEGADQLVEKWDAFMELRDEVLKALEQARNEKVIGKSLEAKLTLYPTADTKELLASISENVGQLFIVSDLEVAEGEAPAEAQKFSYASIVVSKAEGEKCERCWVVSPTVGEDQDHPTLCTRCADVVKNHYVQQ

PmIleRS1 [2] = target: T1, PmIleRS1; test: biochemical; details: read-out: kon
PmIleRS1 [3] = target: T1, PmIleRS1; test: time courses fitted to slow-binding equation, Ki = koff/kon; assay type: biochemical; details: competitive, tight binding, 30 °C
PmIleRS2 [4] = target: T2, PmIleRS2 (Priestia megaterium, UniProt A0A0B6AVD3); test: biochemical
T2 sequence (A0A0B6AVD3 1-1032): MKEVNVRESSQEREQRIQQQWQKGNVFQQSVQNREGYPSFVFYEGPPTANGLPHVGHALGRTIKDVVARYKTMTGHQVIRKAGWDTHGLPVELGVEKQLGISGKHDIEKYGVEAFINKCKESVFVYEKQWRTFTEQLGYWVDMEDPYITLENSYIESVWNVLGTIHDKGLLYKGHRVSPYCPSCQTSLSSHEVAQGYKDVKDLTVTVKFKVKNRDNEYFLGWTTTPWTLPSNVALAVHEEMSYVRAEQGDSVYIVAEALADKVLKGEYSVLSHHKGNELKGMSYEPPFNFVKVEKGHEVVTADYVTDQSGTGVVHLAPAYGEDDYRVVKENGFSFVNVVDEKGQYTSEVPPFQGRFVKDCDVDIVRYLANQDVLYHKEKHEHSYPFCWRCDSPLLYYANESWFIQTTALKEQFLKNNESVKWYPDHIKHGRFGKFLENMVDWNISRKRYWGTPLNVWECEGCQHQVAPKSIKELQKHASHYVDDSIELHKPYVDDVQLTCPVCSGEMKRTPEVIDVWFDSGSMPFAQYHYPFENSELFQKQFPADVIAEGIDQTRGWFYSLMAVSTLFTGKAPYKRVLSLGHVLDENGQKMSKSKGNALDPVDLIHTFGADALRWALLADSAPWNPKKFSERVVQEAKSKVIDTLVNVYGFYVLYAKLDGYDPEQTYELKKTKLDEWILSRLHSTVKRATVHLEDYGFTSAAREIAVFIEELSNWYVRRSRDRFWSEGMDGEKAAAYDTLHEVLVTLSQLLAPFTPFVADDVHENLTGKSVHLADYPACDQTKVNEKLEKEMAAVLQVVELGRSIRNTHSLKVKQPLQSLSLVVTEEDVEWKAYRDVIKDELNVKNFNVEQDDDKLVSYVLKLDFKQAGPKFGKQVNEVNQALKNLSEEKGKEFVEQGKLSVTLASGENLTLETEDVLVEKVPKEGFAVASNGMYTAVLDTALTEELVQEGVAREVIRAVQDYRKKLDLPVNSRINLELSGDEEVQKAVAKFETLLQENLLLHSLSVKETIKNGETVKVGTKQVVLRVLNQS

PmIleRS2 [5] = target: T2, PmIleRS2; test: biochemical; remark: listed apart in the source
[6] = substrate: Nc1ncnc2c1ncn2[C@@H]1O[C@H](COP(=O)(O)OP(=O)(O)OP(=O)(O)O)[C@@H](O)[C@H]1O; test: purified protein, by the assay type; details: 30.0 °C
[7] = substrate: CCC[C@H](N)C(=O)O; test: purified protein, by the assay type; details: 30.0 °C
[8] = substrate: CC(C)[C@H](N)C(=O)O; test: purified protein, by the assay type; details: 30.0 °C
[9] = substrate: CC[C@@H](C)[C@@H](N)C(=O)O; test: purified protein, by the assay type; details: 30.0 °C
[10] = substrate: CC[C@H](C)[C@H](N)C(=O)O; test: purified protein, by the assay type
[11] = substrate: Nc1ncnc2c1ncn2[C@@H]1O[C@H](COP(=O)(O)OP(=O)(O)OP(=O)(O)O)[C@@H](O)[C@H]1O; test: purified protein, by the assay type
[12] = substrate: CC[C@H](C)[C@H](N)C(=O)O; test: purified protein, by the assay type; details: 30.0 °C

koff (PmIleRS1 [1]): 0.00043 s⁻¹
kon (PmIleRS1 [2]): 1.51e+06 M⁻¹ s⁻¹
Ki (PmIleRS1 [3]): 0.285 ± 0.146 nM
Ki (PmIleRS2 [4]): 1040 ± 40 nM
Ki (PmIleRS2 [5]): 1080 ± 60 nM
Molecule: C/C(=C\C(=O)OCCCCCCCCC(=O)O)C[C@@H]1OC[C@H](C[C@@H]2O[C@H]2[C@@H](C)[C@H](C)O)[C@@H](O)[C@H]1O [mupirocin]

B1: PmIleRS2 (Priestia megaterium NBRC 15308 = ATCC 14581) (protein)
chain: MKEVNVRESSQEREQRIQQQWQKGNVFQQSVQNREGYPSFVFYEGPPTANGLPHVGHALGRTIKDVVARYKTMTGHQVIRKAGWDTHGLPVELGVEKQLGISGKHDIEKYGVEAFINKCKESVFVYEKQWRTFTEQLGYWVDMEDPYITLENSYIESVWNVLGTIHDKGLLYKGHRVSPYCPSCQTSLSSHEVAQGYKDVKDLTVTVKFKVKNRDNEYFLGWTTTPWTLPSNVALAVHEEMSYVRAEQGDSVYIVAEALADKVLKGEYSVLSHHKGNELKGMSYEPPFNFVKVEKGHEVVTADYVTDQSGTGVVHLAPAYGEDDYRVVKENGFSFVNVVDEKGQYTSEVPPFQGRFVKDCDVDIVRYLANQDVLYHKEKHEHSYPFCWRCDSPLLYYANESWFIQTTALKEQFLKNNESVKWYPDHIKHGRFGKFLENMVDWNISRKRYWGTPLNVWECEGCQHQVAPKSIKELQKHASHYVDDSIELHKPYVDDVQLTCPVCSGEMKRTPEVIDVWFDSGSMPFAQYHYPFENSELFQKQFPADVIAEGIDQTRGWFYSLMAVSTLFTGKAPYKRVLSLGHVLDENGQKMSKSKGNALDPVDLIHTFGADALRWALLADSAPWNPKKFSERVVQEAKSKVIDTLVNVYGFYVLYAKLDGYDPEQTYELKKTKLDEWILSRLHSTVKRATVHLEDYGFTSAAREIAVFIEELSNWYVRRSRDRFWSEGMDGEKAAAYDTLHEVLVTLSQLLAPFTPFVADDVHENLTGKSVHLADYPACDQTKVNEKLEKEMAAVLQVVELGRSIRNTHSLKVKQPLQSLSLVVTEEDVEWKAYRDVIKDELNVKNFNVEQDDDKLVSYVLKLDFKQAGPKFGKQVNEVNQALKNLSEEKGKEFVEQGKLSVTLASGENLTLETEDVLVEKVPKEGFAVASNGMYTAVLDTALTEELVQEGVAREVIRAVQDYRKKLDLPVNSRINLELSGDEEVQKAVAKFETLLQENLLLHSLSVKETIKNGETVKVGTKQVVLRVLNQS
Km [6]: (1.6 ± 0.1) × 10^3 uM
kcat/Km [6]: 40000 M⁻¹ s⁻¹
Km [7]: (7.97 ± 0.84) × 10^3 uM
kcat [7]: 33 ± 1 s⁻¹
kcat/Km [7]: 4100 M⁻¹ s⁻¹
Km [8]: (5.4 ± 0.4) × 10^3 uM
kcat [8]: 39 ± 1 s⁻¹
kcat/Km [8]: 7000 M⁻¹ s⁻¹
Km [9]: (2.3 ± 0.1) × 10^3 uM
kcat [9]: 1.54 ± 0.03 s⁻¹
kcat/Km [9]: 670 M⁻¹ s⁻¹
Km [10]: 6.2 ± 0.8 µM
kcat/Km [10]: 150000 M⁻¹ s⁻¹
Km ([10]; 30.0 °C): 69.3 ± 5.5 µM
kcat/Km ([10]; 30.0 °C): 940000 M⁻¹ s⁻¹
Km [11]: 76.4 ± 1.4 µM
kcat [11]: 0.96 ± 0.03 s⁻¹
kcat/Km [11]: 10000 M⁻¹ s⁻¹
Km ([11]; 30.0 °C): (3.8 ± 0.2) × 10^3 uM
kcat/Km ([11]; 30.0 °C): 20000 M⁻¹ s⁻¹
Km [12]: 48.6 ± 1.9 µM
kcat/Km [12]: 1.4e+06 M⁻¹ s⁻¹
